# Molecular target: Suppressor of potassium transport defect 3 (SKD3), mature IMS form, residues 127-707 (human) (UniProt Q9H078)
# Experiment: AUC
substance,measurement,value
"Suppressor of potassium transport defect 3 (SKD3), mature IMS form, residues 127-707 (from UniProt Q9H078 127-707) (enzyme)",stoichiometry N,12

# — paper doi:10.1101/2021.12.16.472980
